Experimental data from patent US20220332804A1 (CSL INNOVATION, published 2022).
Where a chain is given by its changes, count along the chain named.

Tests used:
Assay in all cases: SPR, antibody captured, C2 as analyte;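 note: biacore at 37 °C, anti-C2 mAbs held by immobilised goat anti-human IgG, C2 alanine or serine mutants injected, double-referenced sensorgrams fitted to a 1:1 kinetic or steady-state model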
[1] = target: T1, human complement C2 (wild type) (human, UniProt P06681 21-752)
T1 construct: Full-length human C2 (NP_000054) with C-terminal 8x His tag, secreted from Expi293F cells and purified from the supernatant; also called WT; huC2
T1 sequence: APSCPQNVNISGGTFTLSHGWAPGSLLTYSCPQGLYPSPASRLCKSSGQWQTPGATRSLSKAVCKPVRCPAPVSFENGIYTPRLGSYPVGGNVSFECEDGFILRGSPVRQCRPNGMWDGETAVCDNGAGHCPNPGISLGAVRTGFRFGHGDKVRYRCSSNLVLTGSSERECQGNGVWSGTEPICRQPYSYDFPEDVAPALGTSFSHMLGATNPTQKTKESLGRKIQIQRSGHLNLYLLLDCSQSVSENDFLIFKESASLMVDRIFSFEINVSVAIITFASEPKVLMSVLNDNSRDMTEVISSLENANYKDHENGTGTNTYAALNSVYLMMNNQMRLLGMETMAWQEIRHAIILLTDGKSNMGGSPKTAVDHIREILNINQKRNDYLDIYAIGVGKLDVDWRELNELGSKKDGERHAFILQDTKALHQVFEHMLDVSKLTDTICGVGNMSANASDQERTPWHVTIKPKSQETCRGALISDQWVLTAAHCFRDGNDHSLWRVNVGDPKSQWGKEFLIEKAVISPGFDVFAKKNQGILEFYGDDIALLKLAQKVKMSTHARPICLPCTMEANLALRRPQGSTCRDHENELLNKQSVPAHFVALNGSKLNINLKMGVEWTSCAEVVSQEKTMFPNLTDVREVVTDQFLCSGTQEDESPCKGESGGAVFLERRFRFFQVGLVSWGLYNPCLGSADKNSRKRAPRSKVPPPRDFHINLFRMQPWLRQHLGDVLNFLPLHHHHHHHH

[2] = target: T2, human C2 H451A (human, UniProt P06681 21-752)
T2 sequence: T1 sequence with H431A

[3] = target: T3, human C2 L271A (human, UniProt P06681 21-752)
T3 sequence: T1 sequence with L251A

B1: RF16-242 (antibody, human IgG4 S228P, lambda, V domains shown)
VH: EVQLLQSGAEVKKPGESLKISCKGSGYSFTSYWIGWVRQMPGKGLEWMGIIYPGDSDTRYSPSFQGQVTISADKSISTAYLQWSSLKASDTAMYYCARRGHYGDYFDYWGQGTLVTVSS
VL: SYELTQPPSVSVSPGQTARITCSGDALPKKYAYWYHQKSGQAPVLVIYEDRRRPSEIPERFSGSSSGTMATLTITGAQVEDEGVYFCYSRDRAGNQRVFGGGTQLTVLG
notes: pH-dependent anti-C2 antibody from a phage display library
Work on B1 yielded a Kd [1] of 7 nM, a Kd [2] of 21.3 nM and a Kd [3] of 6.9 nM.
